{"source": "paper PMC5167704", "origin": "cited, not measured here", "target": "C4BP SCR6-8 (Homo sapiens) (UniProt P04003)", "sequence (P04003 363-540)": "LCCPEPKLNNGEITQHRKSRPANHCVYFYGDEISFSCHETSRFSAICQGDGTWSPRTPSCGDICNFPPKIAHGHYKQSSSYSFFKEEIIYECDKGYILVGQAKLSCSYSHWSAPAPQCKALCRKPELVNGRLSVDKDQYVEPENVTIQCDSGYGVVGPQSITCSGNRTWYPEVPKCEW", "note": "pKd: −log10 of the molar value.", "data": [{"substance": "Ail (from UniProt Q56957)", "values": [{"measurement": "pKd", "value": 9.12}]}]}
